Values belong to the molecule of their own block, whether it stands above or below them.
Legend:
BJAB cells = test: BJAB apoptosis induced by anti-CD95 (anti-APO1) antibody; format: cell-based, human; conditions: BJAB stably expressing the mutant vs control plasmid, PI staining
Method: The total amount of transfected plasmid DNA was adjusted with pcDNA3 plasmid to be the same within individual experiments. After transfection, 293T cells were harvested at different times and lysed with 0.2% NP-40 isotonic lysis buffer [N. Inohara et al., Proc. Natl. Acad. Sci. U.S.A. 94:10717-10722 (1997)]. The B lymphocyte-derived BJAB cell line was stably trasnfected by electroporation with pcDNA3 or pcDNA3-Flag-RICK (K38M). After selection with […] (1 μg/ml), bulk cell lines were tested for RICK protein expression with anti-Flag antibody by flow cytometric analysis. […]
Apoptosis Assays: 5×10^5 293T cells were co-transfected with 0.2 μg of pcDNA3-β-gal plus each expression plasmid in triplicate by the calcium phosphate method as reported [N. Inohara et al., Proc. Natl. Acad. Sci. U.S.A. 94:10717-10722 (1997)]. […] At least 300 hundred blue-staining cells were counted. BJAB apoptosis induced by anti-Apol mAb was determined by flow cytometric analysis of nuclei stained with propidium iodide as described [R. Merino et al., J. Immunol. […] Statistical significance was determined by one-way ANOVA followed by Student-Neuman-Keuls post-doc comparisons.

293T cells = test: Apoptosis assay, RICK co-transfection; format: cell-based, human; conditions: 293T cells
Method: (§1) The total amount of transfected plasmid DNA was adjusted with pcDNA3 plasmid to be the same within individual experiments. After transfection, 293T cells were harvested at different times and lysed with 0.2% NP-40 isotonic lysis buffer [N. Inohara et al., Proc. Natl. Acad. Sci. U.S.A. 94:10717-10722 (1997)]. The B lymphocyte-derived BJAB cell line was stably trasnfected by electroporation with pcDNA3 or pcDNA3-Flag-RICK (K38M). After selection with […] (1 μg/ml), bulk cell lines were tested for RICK protein expression with anti-Flag antibody by flow cytometric analysis. For immunoprecipitation, 1 mg of soluble protein was incubated with 10 μg/ml of polyclonal anti-Flag, anti-myc or control antibody overnight at 4° C. and tagged proteins were immunoprecipitated with Protein A-Sepharose 4B (Zymed Laboratories Inc.). Immunoprecipitated proteins or total lysates were subjected to 12% SDS-polyacrylamide electrophoresis and immunoblotted with monoclonal antibodies (mAb) to HA (Boeringer Mannheim) or Flag (Kodak).
Apoptosis Assays: 5×10^5 293T cells were co-transfected with 0.2 μg of pcDNA3-β-gal plus each expression plasmid in triplicate by the calcium phosphate method as reported [N. Inohara et al., Proc. Natl. Acad. Sci. U.S.A. 94:10717-10722 (1997)]. In some experiments, 20 μM of the caspase inhibitor zVAD-fmk (Enzyme Systems Products) or 12.5 μl of medium from […] cells producing Fas ligand (Immunex Corporation, Seattle, Wash.) was added at 8 hrs after transfection. At 18 or 24 hours after transfection, cells were fixed, stained for β-galactosidase as described [N. Inohara et al., Proc. Natl Acad. Sci. U.S.A. 94:10717-10722 (1997)] and assayed for morphological features of apoptosis. At least 300 hundred blue-staining cells were counted. BJAB apoptosis induced by anti-Apol mAb was determined by flow cytometric analysis of nuclei stained with propidium iodide as described [R. Merino et al., J. Immunol. 155:3830-3838 (1995)]. Statistical significance was determined by one-way ANOVA followed by Student-Neuman-Keuls post-doc comparisons.

caspase-8 = molecular target: T1, caspase-8 (Homo sapiens, UniProt Q14790); test: Caspase enzymatic assay (Ac-DEVD-AMC) after RICK co-transfection; format: biochemical; conditions: immunoprecipitated caspase-8, Ac-DEVD-AMC substrate
T1 construct: expressed in transfected cells; host or cells: human 293T cells
Method: Caspase Enzymatic Assay: The human FADD cDNA was cloned into the BamHI and XhoI sites of pcDNA3-myc to produce C-terminal myc-tagged FADD. 5×10^6 293T cells were transfected with 5 μg of pcDNA3, pcDNA3-caspase-8-AU1 or pcDNA3-caspase-8-mt-AU1 [N. Inohara et al., Proc. Natl. Acad. Sci. U.S.A. 94:10717-10722 (1997)] plus 5 μg of pcDNA3, pcDNA3-FADD-myc or pcDNA3- Flag-RICK. At 16 hours after transfection, cells were harvested and lysed with NP-40 buffer [N. Inohara et al., Proc. Natl. Acad. Sci. U.S.A. 94:10717-10722 (1997)]. AU1-tagged proteins were immunoprecipitated with mAb to AU1 and the Ac-DEVD-AMC cleavage activity was measured as previously described [N. Inohara et al., Proc. Natl. Acad. Sci. U.S.A. 94:10717-10722 (1997)].

CLARP [1] = molecular target: T2, CLARP (Homo sapiens, UniProt O15519); test: Co-immunoprecipitation of RICK with CLARP; format: binding
Method: as §1

[2] = tested on: caspase-1, caspase-2, caspase-3, caspase-4, caspase-8, CED-3, CED-4, Bcl-XL, TRAF2, c-IAP-1, c-IAP-2 or RAIDD; test: Association of RICK with other apoptosis regulatory proteins; format: binding; conditions: 293T lysates
Method: as §1

FADD [3] = molecular target: T3, FADD (Homo sapiens, UniProt Q13158); test: In vitro phosphorylation of recombinant FADD by RICK immunoprecipitates; format: biochemical; conditions: immunoprecipitates from 293T cells, 5 μM [γ-32P]ATP
T3 construct: made in house
T3 sequence (Q13158 1-208): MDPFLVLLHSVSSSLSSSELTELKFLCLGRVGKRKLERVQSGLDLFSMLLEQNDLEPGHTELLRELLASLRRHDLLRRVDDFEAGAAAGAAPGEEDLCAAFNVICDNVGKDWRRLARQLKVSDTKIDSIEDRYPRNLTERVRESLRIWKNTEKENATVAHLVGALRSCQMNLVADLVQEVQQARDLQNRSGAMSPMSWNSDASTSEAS
Text: CIPERK proteins in total lysate were detected by immunoblotting with mAb to Flag (middle panel). Recombinant FADD on the same filter used in (A) was detected by immunoblotting, with rabbit polyclonal anti-(His)6 antibody (lower panel). Note CIPERK was autophosphorylated. The estimated molecular size is shown on the left [293T cells were transfected with vector control or plasmid expressing Flag-CIPERK (WT) or Flag-CIPERK-K38M (mt), and then CIPERK proteins were immunoprecipitated by mAb to Flag and incubated with recombinant FADD and 5 μM [γ-^32P]ATP].

NF-KB = NF-KB activation by RICK; format: cell-based, human; conditions: 293T cells
FADD [4] = molecular target: T3, FADD; test: FADD phosphorylation in transfected cells; format: cell-based; conditions: 293T cells, co-expression with CLARP
Method: Therefore, next it was determined whether expression of CIPERK can regulate the phosphorylation of FADD in vivo. Expression plasmids producing HA-CLARP, Flag-CIPERK and AU1-FADD were transiently transfected into 293T cells, and the expression of FADD was monitored by immunoblotting with anti-AU1 antibody. Transfection of plasmids producing either FADD or FADD plus CIPERK induced the expression of two closely migrating AU1-tagged FADD proteins of ˜27 kDa (FIG. 12A). In contrast, co-expression of FADD, CIPERK and CLARP induced the expression of two additional FADD bands migrating at ˜30 kDa (FIG. 12A), previously shown to represent phosphorylated FADD [B. Z. Stanger et al., Cell 81:513-523 (1995)]. […] The increased induction of FADD phosphorylation by CLARP was specific in that was not observed when FADD was co-expressed with only CIPERK and caspase-8 (FIG. 12A). Furthermore, FADD phosphorylation was induced by ectopic expression of CD95 (FIG. 12B), a stimulus known to induce CD95 oligomerization and activation [J. P. Medema et al., EMBO J. 16:2794 -2804 (1997); B. Z. Stanger et al., Cell 81:513-523 (1995)].

CLARP [5] = molecular target: T2, CLARP; test: Co-immunoprecipitation of RICK with CLARP; format: binding; design: expressed in transfected cells; host or cells: human 293T cells; conditions: CLARP-C (residues 246-480)
Method: as §1

[6] = molecular target: T4, Flag-tagged RICK (RIP-like interacting CLARP kinase), pcDNA3-Flag-RICK (human, UniProt O43353 11-540, limits assumed); test: anti-Flag immunoprecipitation from co-transfected 293T cells, anti-HA immunoblot
T4 construct: Entire open reading frame of RICK, expressed in 293T cells; also called CIPERK; Flag-CIPERK; not shown: N-terminal Flag tag
T4 sequence (O43353 other isoform, or with tags, fused parts or gaps limits assumed): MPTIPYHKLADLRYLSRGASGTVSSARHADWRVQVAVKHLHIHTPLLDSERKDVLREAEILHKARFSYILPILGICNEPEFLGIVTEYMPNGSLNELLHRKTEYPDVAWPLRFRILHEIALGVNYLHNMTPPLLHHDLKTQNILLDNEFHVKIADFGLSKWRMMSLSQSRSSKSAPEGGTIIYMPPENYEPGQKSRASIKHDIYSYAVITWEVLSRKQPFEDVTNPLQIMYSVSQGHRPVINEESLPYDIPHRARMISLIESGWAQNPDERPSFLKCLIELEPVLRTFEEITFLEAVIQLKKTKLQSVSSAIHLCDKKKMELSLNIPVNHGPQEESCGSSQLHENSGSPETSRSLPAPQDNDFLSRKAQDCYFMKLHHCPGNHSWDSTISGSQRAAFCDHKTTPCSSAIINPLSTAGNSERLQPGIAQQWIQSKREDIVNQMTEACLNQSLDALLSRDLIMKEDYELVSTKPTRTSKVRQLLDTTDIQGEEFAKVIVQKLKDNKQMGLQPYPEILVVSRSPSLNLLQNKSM

Molecule: RICK-K38M: RICK ATP-binding site mutant, lysine at position 38 replaced by methionine
- sensitivity to anti-APO1-induced apoptosis (BJAB cells): significantly less sensitive

B1: TRAF2 (other, UniProt Q12933 1-501, looked up, not shown: small tags and cut ends)
chain: MAAASVTPPGSLELLQPGFSKTLLGTKLEAKYLCSACRNVLRRPFQAQCGHRYCSFCLASILSSGPQNCAACVHEGIYEEGISILESSSAFPDNAARREVESLPAVCPSDGCTWKGTLKEYESCHEGRCPLMLTECPACKGLVRLGEKERHLEHECPERSLSCRHCRAPCCGADVKAHHEVCPKFPLTCDGCGKKKIPREKFQDHVKTCGKCRVPCRFHAIGCLETVEGEKQQEHEVQWLREHLAMLLSSVLEAKPLLGDQSHAGSELLQRCESLEKKTATFENIVCVLNREVERVAMTAEACSRQHRLDQDKIEALSSKVQQLERSIGLKDLAMADLEQKVLEMEASTYDGVFIWKISDFARKRQEAVAGRIPAIFSPAFYTSRYGYKMCLRIYLNGDGTGRGTHLSLFFVVMKGPNDALLRWPFNQKVTLMLLDQNNREHVIDAFRPDVTSSSFQRPVNDMNIASGCPLFCPVSKMEAKNSYVRDDAIFIKAIVDLTGL
- binding result [6]: no binding

B3: C. elegans CED-3, epitope-tagged (pcDNA3-Ced-3-Flag) (enzyme, UniProt P42573 1-503, looked up)
chain: MMRQDRRSLLERNIMMFSSHLKVDEILEVLIAKQVLNSDNGDMINSCGTVREKRREIVKAVQRRGDVAFDAFYDALRSTGHEGLAEVLEPLARSVDSNAVEFECPMSPASHRRSRALSPAGYTSPTRVHRDSVSSVSSFTSYQDIYSRARSRSRSRALHSSDRHNYSSPPVNAFPSQPSSANSSFTGCSSLGYSSSRNRSFSKASGPTQYIFHEEDMNFVDAPTISRVFDEKTMYRNFSSPRGMCLIINNEHFEQMPTRNGTKADKDNLTNLFRCMGYTVICKDNLTGRGMLLTIRDFAKHESHGDSAILVILSHGEENVIIGVDDIPISTHEIYDLLNAANAPRLANKPKIVFVQACRGERRDNGFPVLDSVDGVPAFLRRGWDNRDGPLFNFLGCVRPQVQQVWRKKPSQADILIAYATTAQYVSWRNSARGSWFIQAVCEVFSTHAKDMDVVELLTEVNKKVACGFQTSQGSNILKQMPEMTSRLLKKFYFWPEARNSAV
notes: not shown: position and
- binding result [6]: no binding

B4: caspase-4 (enzyme, UniProt P49662 1-377, looked up, not shown: small tags and cut ends)
chain: MAEGNHRKKPLKVLESLGKDFLTGVLDNLVEQNVLNWKEEEKKKYYDAKTEDKVRVMADSMQEKQRMAGQMLLQTFFNIDQISPNKKAHPNMEAGPPESGESTDALKLCPHEEFLRLCKERAEEIYPIKERNNRTRLALIICNTEFDHLPPRNGADFDITGMKELLEGLDYSVDVEENLTARDMESALRAFATRPEHKSSDSTFLVLMSHGILEGICGTVHDEKKPDVLLYDTIFQIFNNRNCLSLKDKPKVIIVQACRGANRGELWVRDSPASLEVASSQSSENLEEDAVYKTHVEKDFIAFCSSTPHNVSWRDSTMGSIFITQLITCFQKYSWCCHLEEVFRKVQQSFETPRAKAQMPTIERLSMTRYFYLFPGN
- binding result [6]: no binding

Further lines, with some results ahead:

- enzymatic activity of wild-type (wt) caspase-8 (caspase-8): enhanced
- co-immunoprecipitation with CLARP (CLARP [1]; 293T lysates): co-immunoprecipitated
- interaction with the N-terminal DED-containing domain of CLARP (CLARP [1]; CLARP-N): not
- phosphorylation of recombinant FADD (FADD [3]): induced phosphorylation
- interaction with the C-terminal caspase-like domain of CLARP (CLARP [5]): interacted
Molecule: RICK: RIP-like interacting CLARP kinase, protein of 531 amino acids (SEQ ID NO:1)
- induction of apoptosis by expression of RICK (293T cells; RICK alone): did not
- apoptosis induced by FADD, CLARP and caspase-8 (293T cells; co-expression of wt or mutant RICK): enhanced
- apoptosis promoted by caspase-8 (293T cells; co-expression with RICK): augmented
- apoptosis promoted by caspase-10 (293T cells; co-expression with RICK): augmented
- apoptosis induced by caspase-8-mt (293T cells; co-expression with RICK, Cys377 to Ser mutant): did not augment
- association with multiple apoptosis regulatory proteins (caspase-1, -2, -3, -4, -8, CED-3, CED-4, Bcl-XL, TRAF2, c-IAP-1, c-IAP-2, RAIDD) [2]: did not associate
- activation of NFkB (NF-KB): induction of NFkB
- phosphorylation of FADD in cells (FADD [4]): induced the phosphorylation of FADD in the presence of CLARP

- binding result [6]: no binding
B2: caspase-8, epitope-tagged (pcDNA3-caspase-8-AU1) (enzyme, human, UniProt Q14790-4 1-496, looked up, not shown: small tags and cut ends)
chain: MDFSRNLYDIGEQLDSEDLASLKFLSLDYIPQRKQEPIKDALMLFQRLQEKRMLEESNLSFLKELLFRINRLDLLITYLNTRKEEMERELQTPGRAQISAYRFHFCRMSWAEANSQCQTQSVPFWRRVDHLLIRVMLYQISEEVSRSELRSFKFLLQEEISKCKLDDDMNLLDIFIEMEKRVILGEGKLDILKRVCAQINKSLLKIINDYEEFSKGEELCGVMTISDSPREQDSESQTLDKVYQMKSKPRGYCLIINNHNFAKAREKVPKLHSIRDRNGTHLDAGALTTTFEELHFEIKPHDDCTVEQIYEILKIYQLMDHSNMDCFICCILSHGDKGIIYGTDGQEAPIYELTSQFTGLKCPSLAGKPKVFFIQACQGDNYQKGIPVETDSEEQPYLEMDLSSPQTRYIPDEADFLLGMATVNNCVSYRNPAEGTWYIQSLCQSLRERCPRGDDILTILTEVNYEVSNKDDKKNMGKQMPQPTFTLRKKLVFPSD
notes: also called AU1-tagged caspase-8; FLICE
